# Test results from patent US20050058639A1 (AstraZeneca / MedImmune, published 2005).
# Positions count from the first letter of the chain named.
# T1: human RANTES (human, UniProt P13501 24-91)
# T1 construct: also called hRANTES
# T1 sequence (looked up): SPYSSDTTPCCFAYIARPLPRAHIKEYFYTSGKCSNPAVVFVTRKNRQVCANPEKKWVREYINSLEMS
# T2: human MIP-1-alpha (human, UniProt P10147 24-92, limits assumed)
# T2 construct: also called hMIP-1-alpha
# T2 sequence (looked up): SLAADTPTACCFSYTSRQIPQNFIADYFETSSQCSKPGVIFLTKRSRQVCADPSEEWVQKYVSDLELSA
# T3: recombinant human MCP-2 (human, UniProt P80075 24-99)
# T3 construct: also called rhMCP-2
# T3 sequence (looked up): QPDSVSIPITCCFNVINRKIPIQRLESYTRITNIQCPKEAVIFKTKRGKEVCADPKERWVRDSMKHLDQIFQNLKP
# T4: human GRO/MGSA (human, UniProt P09341 35-107)
# T4 construct: also called hGRO/MGSA; GRO-alpha
# T4 sequence (looked up): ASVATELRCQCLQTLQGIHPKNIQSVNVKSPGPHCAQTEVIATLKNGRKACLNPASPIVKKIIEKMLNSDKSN
# B1: anti-MCP-1 mAb 2.4.1 (antibody, V domains shown)
# VH: QVQLVQSGAEVKKPGASVKVSCKASGYTFTGYYLHWVRQAPGQGLEWMGWINPYNDGTNYAQKFQGRVTMTRDTSISTAYMELSRLRSDDTAVYYCARDIAAAGAVYFDYWGQGTLVTVSS
# VL: DIQMTQSPSSLSASVGDRVTITCQASQDITTYLNWYQQKPGKAPKLLIYDASNLETGVPSRFSGSGSGTDFTFTISSLQPEDIATYYCQQYDNLPITFGQGTRLEIKR
# B2: anti-MCP-1 mAb 1.9.1 (antibody, V domains shown)
# VH: QVQLVQSGAEVKKPGASVKVSCKVSGYTLTELSMHWVRQAPGKGLEWMGGFDPEDGETINAQKFQGRVTMTEDTSTDTGYMELSSLRSEDTAVYYCATDPGGYSGYFDHWGQGTLVTVSS
# VL: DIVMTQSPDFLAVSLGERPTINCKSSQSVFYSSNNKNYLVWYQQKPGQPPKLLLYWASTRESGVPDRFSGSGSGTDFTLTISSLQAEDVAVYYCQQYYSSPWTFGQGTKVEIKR
# B3: anti-MCP-1 mAb 3.8 (antibody, V domains shown)
# VH: B2 VH with D55N, N60H, T69I, G79A, P100Q, H109C
# VL: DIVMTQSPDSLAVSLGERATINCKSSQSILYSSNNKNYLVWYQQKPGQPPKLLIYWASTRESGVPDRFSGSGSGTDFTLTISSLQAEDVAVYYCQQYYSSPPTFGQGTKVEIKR
# notes: also called 3.8.1
# B4: anti-MCP-1 mAb 3.5.1 (antibody, V domains shown)
# VH: QVQLVQSGAEVKKPGASVKVSCKVSGYTLSELSMHWVRQAPGKGLEWMGGFDPEDDETIYAQKFQGRVTMTEDTSTDTAFMELSSLRSEDTAVYYCATHDFWSGYFHYWGQGTLVTVSS
# VL: DIVMTQSPDSLAVSLGERATINCKSSQSVLYSSDNKSYLVWYQQKPGQPPKVLIYWASIRESGVPDRFSGSGSGTDFTLTISSLQAEDVAVYYCQQYYTSPWTFGQGTKVEIKR
# B5: anti-MCP-1 mAb 3.6.1 (antibody, V domains shown)
# VH: B4 VH with S30T, D56G, F80Y, T98I, D100E, H107D
# VL: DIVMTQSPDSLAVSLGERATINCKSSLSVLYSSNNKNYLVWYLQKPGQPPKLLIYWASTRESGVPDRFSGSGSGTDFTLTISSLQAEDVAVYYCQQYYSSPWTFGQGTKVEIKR
# B6: anti-MCP-1 mAb 5.3.1 (antibody, V domains shown)
# VH: B4 VH with D56G, F80Y, Y94F, H99K, D100R, F101E, W102Y, H107D
# VL: DIVMTQSPDSLAVSLGERATINCKSSQSVLYSSNSKNYLAWFQQKPGQPPKLLIYWASTRESGVPDRFSGSGSGTDFTLTISRLQAEDVAVYSCQQYFITPWTFGQGTKVELKR
# Biological target: T5, human monocyte chemo-attractant protein-1 (MCP-1) (human, UniProt P13500 24-99)
# T5 construct: 76-residue recombinant protein from E. coli, bought (PeproTech); also called hMCP-1(MCAF); human MCP-1
# Assay: Biacore, mAb immobilized, MCP-1 injected; Biacore, 25 C, native MCP-1 injected over immobilized mAb
# Experimental: Determination of anti-MCP-1 antibody affinity using Biacore analysis. The antibody/MCP-1 interaction analysis was performed at 25° C. using two CM5 chips docked in Biacore 3000 optical biosensors. Individual flow cells on each chip were activated with a 7-minute injection of NHS/EDC, carbohydrazide was coupled through the NHS ester using a 7-minute injection, and the residual activated groups were blocked with a 7-minute injection of ethanolamine. The monosaccharide residues of each antibody were oxidized using 1 mM sodium metaperiodate in 100 mM sodium acetate, pH 5.5 at 4° C. for 30 minutes. The oxidized antibody was desalted into 100 mM sodium acetate, pH 5.0, to couple the antibody to the carbohydrazide-modified surface. The mAb surfaces were stabilized by reducing the hydrazone bond with 0.1 M sodium cyanoborohydride. The antigen/antibody interaction was tested by injecting 0, 0.049, 0.15, 0.4, 1.3, 4 and 12 nM of MCP-1 (Peprotech, N.J.) in running buffer (10 mM HEPES, 150 mM NaCl, 0.005% surfactant, 200 μg/ml BSA, pH 7.4). The surfaces were regenerated with a 12-second pulse of 15 mM H₃PO₄. The antigen/antibody interaction was tested by injecting duplicate antigen samples diluted in running buffer (10 mM HEPES, […], 0.005% surfactant, 200 μg/mL BSA, pH 7.4), in a 300-fold concentration range. The surfaces were regenerated with a 12-second pulse of 15 mM H₃PO₄. To determine the kinetics of each interaction, the data sets were fit globally to a 1:1 interaction model that included a parameter for mass transport.
# T5 sequence (P13500 24-99): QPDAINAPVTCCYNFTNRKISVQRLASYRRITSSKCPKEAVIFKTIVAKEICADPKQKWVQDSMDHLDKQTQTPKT
row,Kd,Binder
1,0.014 nM,B1
2,0.096 nM,B2
3,0.0034 nM,B3
4,0.1 nM,B4
5,0.015 nM,B5
6,0.45 nM,B6

# Biological target: T5, human monocyte chemo-attractant …
# Assay: ELISA, hybridoma supernatant on coated MCP-1; ELISA, hybridoma supernatant on plate-coated non-reduced MCP-1 (2 ug/mL)
# Experimental: Selection of candidate antibodies for ELISA. After 14 days of culture, hybridoma supernatants were screened for MCP-1-specific monoclonal antibodies. The ELISA plates (Fisher, Cat. No. 12-565-136) were coated with 50 μl/well of MCP-1 (2 μg/mL) in Coating Buffer (0.1 M Carbonate Buffer, pH 9.6, NaHCO₃8.4 g/L), then incubated at 4° C. overnight. After incubation, the plates were washed with Washing Buffer (0.05% Tween 20 in PBS) three times. 200 μl/well Blocking Buffer (0.5% BSA, 0.1% Tween 20, 0.01% Thimerosal in 1× PBS) were added and the plates incubated at room temperature for 1 hour. After incubation, the plates were washed with Washing Buffer three times. 50 μL/well of hybridoma supernatants, and positive and negative controls were added and the plates incubated at room temperature for 2 hours.
# The positive control used throughout was XMG2 MCP-1 Group 1, footpad N160-7 and the negative control was XMG2 KLH Group 1, footpad L627-6. After incubation, the plates were washed three times with Washing Buffer. […] In the secondary screen, three sets of samples (positives in first screening) were screened, one set for hIgG detection, one set for hKappa detection, and one set for hlambda detection. After incubation, the plates were washed three times with Washing Buffer. 100 μL/well of TMB (BioFX Lab. Cat. #TMSK-0100-01) were added and the plates allowed to develop for about 10 minutes (until negative control wells barely started to show color), then 50 μL/well stop solution (TMB Stop Solution (BioFX Lab. Cat. #STPR-0100-01) were added and the plates read on an ELISA plate reader at wavelength 450 nm. The OD readings from the positive wells are presented in Table 9.
row,ELISA OD-MCP-1,Binder
1,3.89 OD450,B1
2,3.66 OD450,B2
3,3.6 OD450,B3
4,3.77 OD450,B4
5,3.59 OD450,B5
6,4 OD450,B6

# Biological target: T5, human monocyte chemo-attractant …
# Assay: cell-based or functional assay
IC50 Ca++ Flux,IC50 Chemotaxis,Binder
0.26 µg/mL,> 5 µg/mL,B1
1.2 µg/mL,35 µg/mL,B2
0.27 µg/mL,0.7 µg/mL,B3
0.58 µg/mL,3.1 µg/mL,B4
0.17 µg/mL,0.52 µg/mL,B5
1.8 µg/mL,2.6 µg/mL,B6

# Biological target: T5, human monocyte chemo-attractant …
# Assay: ELISA, coated antigen; ELISA, purified clone 1:50 on coated hMCP-1 (2 ug/mL), cross-reactivity panel
# Experimental: Determining cross-reactivity of anti-MCP-1 antibodies with other chemokines. ELISA plates (Fisher Cat. No. 12-565-136) were coated with 50 μl/well of MCP-1, MCP-2, MCP-3, MCP-4, RANTES, GRO-alpha, MIP-1 alpha, eotaxin, rat MCP-1 and mouse JE (2 μg/ml) in coating buffer (0.1 M carbonate buffer, pH 9.6, NaHCO₃ 8.4 g/L, then incubated at 4° C. overnight. After incubation, the plates were washed with washing buffer (0.05% Tween 20 in PBS) three times. 200 μL/well blocking buffer (0.5% BSA, 0.1% Tween 20, 0.01% Thimerosal in 1×PBS) were added and the plates incubated at room temperature for 1 hour. After incubation, the plates were washed with washing buffer three times. 50 μL/well of hybridoma supernatants, and positive and negative controls (positive control was anti-MCP-1 antibody purchased from R&D Sciences, and negative control was an antibody to Keyhole Limpet Hemocyanin produced at Abgenix) were added and the plates incubated at room temperature for 2 hours. After incubation, the plates were washed three times with washing buffer. […] After incubation, the plates were washed three times with washing buffer and 100 μL/well of TMB (BioFX Lab. Cat. #TMSK-0 100-01) was added and the plates allowed to develop for about 10 minutes.
row,ELISA OD,Binder
1,0.462 OD450,B1
2,0.446 OD450,B2
3,0.275 OD450,B3
4,0.194 OD450,B4
5,0.342 OD450,B5
6,0.272 OD450,B6

# Biological target: T6, recombinant human MCP-3 (human, UniProt P80098 24-99)
# T6 construct: also called rhMCP-3
# Assay: ELISA, coated antigen
# Outline: (§1)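 Plates coated overnight at 4° C with MCP-1, MCP-2, MCP-3, MCP-4, RANTES, GRO-alpha, MIP-1 alpha, eotaxin, rat MCP-1 or mouse JE (2 μg/ml, carbonate buffer pH 9.6), blocked with BSA. Hybridoma supernatants bound 2 hours at room temperature; TMB colour developed about 10 minutes.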
# T6 sequence (P80098 24-99 limits assumed): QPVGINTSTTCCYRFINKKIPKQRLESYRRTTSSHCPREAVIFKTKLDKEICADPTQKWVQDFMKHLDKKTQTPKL
row,ELISA OD,Binder
1,0.066 OD450,B1
2,0.044 OD450,B2
3,0.046 OD450,B3
4,0.045 OD450,B4
5,0.045 OD450,B5
6,0.045 OD450,B6

# Biological target: T1, human RANTES
# Assay: ELISA, coated antigen
# Outline: as §1
row,ELISA OD,Binder
1,0.046 OD450,B1
2,0.042 OD450,B2
3,0.046 OD450,B3
4,0.044 OD450,B4
5,0.043 OD450,B5
6,0.045 OD450,B6

# Biological target: T7, recombinant human MCP-4 (human, UniProt Q99616 24-98, limits assumed)
# T7 construct: also called rhMCP-4
# Assay: ELISA, coated antigen
# Outline: as §1
row,ELISA OD,Binder
1,0.06 OD450,B1
2,0.042 OD450,B2
3,0.044 OD450,B3
4,0.044 OD450,B4
5,0.048 OD450,B5
6,0.043 OD450,B6

# Biological target: T2, human MIP-1-alpha
# Assay: ELISA, coated antigen
# Outline: as §1
row,ELISA OD,Binder
1,0.061 OD450,B1
2,0.044 OD450,B2
3,0.046 OD450,B3
4,0.047 OD450,B4
5,0.047 OD450,B5
6,0.042 OD450,B6

# Biological target: T3, recombinant human MCP-2
# Assay: ELISA, coated antigen
# Outline: as §1
row,ELISA OD,Binder
1,0.045 OD450,B1
2,0.04 OD450,B2
3,0.042 OD450,B3
4,0.042 OD450,B4
5,0.052 OD450,B5
6,0.043 OD450,B6

# Biological target: T8, recombinant mouse JE/MCP-1 (mouse, UniProt P10148 24-148)
# T8 construct: also called rmJE/MCP-1
# Assay: ELISA, coated antigen
# Outline: as §1
row,ELISA OD,Binder
1,0.129 OD450,B1
2,0.053 OD450,B2
3,0.042 OD450,B3
4,0.042 OD450,B4
5,0.047 OD450,B5
6,0.05 OD450,B6

# Biological target: T9, human eotaxin (human, UniProt P51671 24-97)
# T9 construct: also called hEotaxin
# Assay: ELISA, coated antigen
# Outline: as §1
row,ELISA OD,Binder
1,0.084 OD450,B1
2,0.042 OD450,B2
3,0.042 OD450,B3
4,0.043 OD450,B4
5,0.043 OD450,B5
6,0.042 OD450,B6

# Biological target: T4, human GRO/MGSA
# Assay: ELISA, coated antigen
# Outline: as §1
row,ELISA OD,Binder
1,0.048 OD450,B1
2,0.043 OD450,B2
3,0.046 OD450,B3
4,0.048 OD450,B4
5,0.047 OD450,B5
6,0.045 OD450,B6

# Biological target: rat MCP-1 (rat, UniProt P14844 24-148)
# Assay: ELISA, coated antigen
# Outline: as §1
# Sequence of rat MCP-1 (P14844 24-148 limits assumed): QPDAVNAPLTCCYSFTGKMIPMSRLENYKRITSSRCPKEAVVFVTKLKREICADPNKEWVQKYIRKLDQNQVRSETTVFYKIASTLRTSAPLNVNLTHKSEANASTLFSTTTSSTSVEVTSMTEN
row,ELISA OD,Binder
1,0.077 OD450,B1
2,0.065 OD450,B2
3,0.062 OD450,B3
4,0.053 OD450,B4
5,0.046 OD450,B5
6,0.047 OD450,B6
